Laboratory results reported in patent publication US20240287172A1 (SCIRHOM, published 2024).
Numbering of substitutions follows the chain as printed.

T1: hiR2-FL-V524A-T7 (human, UniProt Q6PJF5 1-856)
T1 sequence: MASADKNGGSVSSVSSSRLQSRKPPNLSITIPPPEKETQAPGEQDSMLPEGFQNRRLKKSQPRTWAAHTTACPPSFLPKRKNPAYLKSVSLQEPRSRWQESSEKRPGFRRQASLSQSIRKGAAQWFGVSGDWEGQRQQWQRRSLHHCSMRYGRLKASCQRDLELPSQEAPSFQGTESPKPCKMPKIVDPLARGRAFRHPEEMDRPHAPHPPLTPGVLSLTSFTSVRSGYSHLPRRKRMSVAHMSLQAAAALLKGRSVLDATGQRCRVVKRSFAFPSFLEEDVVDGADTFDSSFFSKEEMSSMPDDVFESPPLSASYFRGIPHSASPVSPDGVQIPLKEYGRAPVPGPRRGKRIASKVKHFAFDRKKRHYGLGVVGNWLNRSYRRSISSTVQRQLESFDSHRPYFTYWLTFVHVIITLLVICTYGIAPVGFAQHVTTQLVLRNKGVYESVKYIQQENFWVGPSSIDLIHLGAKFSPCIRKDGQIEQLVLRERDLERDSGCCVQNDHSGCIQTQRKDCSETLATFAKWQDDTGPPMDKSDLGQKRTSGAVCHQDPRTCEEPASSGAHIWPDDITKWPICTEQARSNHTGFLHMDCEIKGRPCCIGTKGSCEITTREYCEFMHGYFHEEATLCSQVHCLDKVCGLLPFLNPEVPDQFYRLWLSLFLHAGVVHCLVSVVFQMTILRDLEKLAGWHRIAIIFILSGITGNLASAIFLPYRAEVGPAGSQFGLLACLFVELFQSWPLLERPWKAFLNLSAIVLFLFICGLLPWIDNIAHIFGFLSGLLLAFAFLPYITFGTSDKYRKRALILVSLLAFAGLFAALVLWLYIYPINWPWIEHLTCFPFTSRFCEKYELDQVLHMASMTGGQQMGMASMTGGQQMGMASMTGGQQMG

T2: hiR2-FL-P575A-T7 (human, UniProt Q6PJF5 1-856)
T2 sequence: T1 sequence with A524V, P575A

B1: antibody 50 (antibody, V domains shown)
VH: QVQLQQSGAELVRPGASVKVSCKASGYAFSNYLIEWVKQRPGQGLEWIGVINPGSGFTKYNEKFKGKATLTADKSSSTAYMQLSSLTSEDSAVYFCARGLYRAMDYWGQGTSVTVSS
VL: DIQMTQSPASQSASLGESVTITCLASQTIGTWLAWYQQKPGKSPQLLIYAAASLADGVPSRFSGGGSGTKFSFKISSLQAEDFVNYYCQQIYSTPYTFGGGTKLEIK
notes: mouse IgG, kappa light chain; also called clone #50; purified antibody 50
B2: antibody 3 (antibody, V domains shown)
VH: QVTLKESGPGILQPSQTLSLTCSFSGFSLTTFAMGIGWVRQPSGKGLEWLAHIWWDGEKYNNPVLKSRLTISKDTSKNQVFLRIANVDTPDTATYYCARISSIYYIIDNWGQGTSVTVSS
VL: DIVLTQSPATLSVTPGHSVSLSCRASQSISNNLHWYQKKSHESPRLLIKYVSQSISGIPSRFSGSGSGTDFTLSINSVETEDFGMYFCQQSYNWPLTFGAGTKLELK
notes: mouse IgG, kappa light chain; also called clone #3; purified antibody 3

Key:
hiR2-FL-V524A-T7 = biological target: T1, hiR2-FL-V524A-T7; experiment: FACS on MEF-DKO cells expressing the variant, 3 µg/ml antibody
Method in brief: (§1)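 Primary stain: antibody 3 μg/ml, 1 h on ice; controls buffer alone. Secondary: PE anti-mouse IgG F(ab′)2 1:100, 1 h on ice, light-protected. Washes at 4° C; read by flow cytometry.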

hiR2-FL-P575A-T7 = biological target: T2, hiR2-FL-P575A-T7; experiment: as above
Method in brief: as §1

| Binder | loss of binding vs wild type (hiR2-FL-V524A-T7) [%] | loss of binding vs wild type (hiR2-FL-P575A-T7) [%] |
| --- | --- | --- |
| B1 | ≥ 30 | – |
| B2 | – | ≥ 30 |
